# B1: mouse HOIL-1L NZF domain (residues Pro192-Gln250) T207E (domain or fragment)
# chain: GPLGSPEPVGWQCPGCTFINKPERPGCEMCCRARPETYQIPASYQPDEEERARLAGEEEALRQYQQ
# Target: M1-linked di-ubiquitin (UniProt P0CG48 1-76; P0CG48 1-76)
# Experiment: ITC
binder,measurement,value
B1,Kd,15.9 µM
